Columns and labels:
MaAAO [1] = biological target: T1, MaAAO (Moesziomyces antarcticus, UniProt A0A081CNK9); test: benzaldehyde formation at […] nm; substrate excess inhibition fit; format: biochemical; conditions: co-substrate O2, 100 mM phosphate pH 6.0, 25 °C
T1 construct: gene PAN0_057d6495; expressed with native signal peptide, secreted from Pichia pastoris X-33 (pPICZA); purified; non-covalent FAD; codon-optimised synthetic gene
T1 sequence (A0A081CNK9 20-638): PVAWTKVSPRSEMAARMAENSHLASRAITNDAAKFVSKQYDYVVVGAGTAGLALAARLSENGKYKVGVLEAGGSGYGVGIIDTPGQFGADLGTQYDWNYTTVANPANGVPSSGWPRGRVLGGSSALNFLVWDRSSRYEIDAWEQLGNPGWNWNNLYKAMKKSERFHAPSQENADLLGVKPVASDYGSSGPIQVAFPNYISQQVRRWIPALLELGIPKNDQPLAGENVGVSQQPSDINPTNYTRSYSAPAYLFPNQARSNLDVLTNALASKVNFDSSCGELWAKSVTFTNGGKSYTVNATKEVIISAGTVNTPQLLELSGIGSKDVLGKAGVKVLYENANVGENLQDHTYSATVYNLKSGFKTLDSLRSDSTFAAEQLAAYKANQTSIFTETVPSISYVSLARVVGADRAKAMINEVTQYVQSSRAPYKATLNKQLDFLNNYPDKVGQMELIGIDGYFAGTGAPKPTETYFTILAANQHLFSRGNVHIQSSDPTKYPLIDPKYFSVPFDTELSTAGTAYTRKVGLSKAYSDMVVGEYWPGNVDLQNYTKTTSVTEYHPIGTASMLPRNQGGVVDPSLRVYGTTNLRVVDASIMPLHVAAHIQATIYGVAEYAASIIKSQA

MaAAO [2] = biological target: T1, MaAAO; test: UV/Vis spectrum of native and heat-denatured enzyme; format: binding; conditions: non-covalently bound
MaAAO [3] = biological target: T1, MaAAO; test: m-anisaldehyde formation at […] nm; substrate excess inhibition fit; format: biochemical; conditions: co-substrate O2, 100 mM phosphate pH 6.0, 25 °C
MaAAO [4] = biological target: T1, MaAAO; test: coupled […],6-DMP-HRP assay; substrate excess inhibition fit; format: biochemical; conditions: co-substrate O2, potassium phosphate pH 6.0, 25 °C
purified protein [5] = substrate: COc1ccc(CO)cc1O; test: purified protein; format: biochemical, Moesziomyces antarcticus; conditions: co-substrate O2, 100 mM phosphate pH 6.0, 25 °C
purified protein [6] = substrate: OCc1ccc2c(c1)OCO2; test: purified protein; format: biochemical, Moesziomyces antarcticus; conditions: co-substrate O2, 100 mM phosphate pH 6.0, 25 °C
purified protein [7] = substrate: C/C=C/C=C/CO; test: purified protein; format: biochemical, Moesziomyces antarcticus; conditions: co-substrate O2, 100 mM phosphate pH 6.0, 25 °C
purified protein [8] = substrate: OC/C=C/c1ccccc1; test: purified protein; format: biochemical, Moesziomyces antarcticus; conditions: co-substrate O2, 100 mM phosphate pH 6.0, 25 °C
purified protein [9] = substrate: COc1ccc(CO)cc1OC; test: purified protein; format: biochemical, Moesziomyces antarcticus; conditions: co-substrate O2, 100 mM phosphate pH 6.0, 25 °C
purified protein [10] = substrate: C=C(C)[C@@H]1CC=C(CO)CC1; test: purified protein; format: biochemical, Moesziomyces antarcticus; conditions: co-substrate O2, 50 mM (text: 100 mM) potassium phosphate pH 6.0, 25 °C
purified protein [11] = substrate: O=Cc1ccc(CO)o1; test: purified protein; format: biochemical, Moesziomyces antarcticus; conditions: co-substrate O2, 50 mM (text: 100 mM) potassium phosphate pH 6.0, 25 °C
purified protein [12] = substrate: COc1ccc(CO)c(OC)c1; test: purified protein; format: biochemical, Moesziomyces antarcticus; conditions: co-substrate O2, 100 mM phosphate pH 6.0, 25 °C
purified protein [13] = substrate: COc1cc(CO)ccc1O; test: purified protein; format: biochemical, Moesziomyces antarcticus; conditions: co-substrate O2, 100 mM phosphate pH 6.0, 25 °C
purified protein [14] = substrate: OCc1ccccc1; test: purified protein; format: biochemical, Moesziomyces antarcticus; conditions: co-substrate O2, 100 mM phosphate pH 6.0, 25 °C, fit with substrate excess inhibition
purified protein [15] = substrate: Nc1cccc(CO)c1; test: purified protein; format: biochemical, Moesziomyces antarcticus; conditions: co-substrate O2, 50 mM (text: 100 mM) potassium phosphate pH 6.0, 25 °C, fit with substrate excess inhibition

OCc1ccccc1 [Benzyl alcohol]
KIU (MaAAO [1]): 1.39 ± 0.35 mM

Cc1cc2nc3c(=O)[nH]c(=O)nc-3n(C[C@H](O)[C@H](O)[C@H](O)COP(=O)(O)OP(=O)(O)OC[C@H]3O[C@@H](n4cnc5c(N)ncnc54)[C@H](O)[C@@H]3O)c2cc1C [FAD]
UV/Vis spectrum of native and heat-denatured enzyme (MaAAO [2]): confirmed that MaAAO contains a non-covalently bound FAD cofactor

COc1cccc(CO)c1 [m-Anisyl alcohol]
KIU (MaAAO [3]): 2.09 ± 0.33 mM

Nc1cccc(CO)c1 [3-Aminobenzyl alcohol]
KIU (MaAAO [4]): 3.27 ± 0.98 mM

B1: MaAAO (Moesziomyces antarcticus) (protein)
chain: PVAWTKVSPRSEMAARMAENSHLASRAITNDAAKFVSKQYDYVVVGAGTAGLALAARLSENGKYKVGVLEAGGSGYGVGIIDTPGQFGADLGTQYDWNYTTVANPANGVPSSGWPRGRVLGGSSALNFLVWDRSSRYEIDAWEQLGNPGWNWNNLYKAMKKSERFHAPSQENADLLGVKPVASDYGSSGPIQVAFPNYISQQVRRWIPALLELGIPKNDQPLAGENVGVSQQPSDINPTNYTRSYSAPAYLFPNQARSNLDVLTNALASKVNFDSSCGELWAKSVTFTNGGKSYTVNATKEVIISAGTVNTPQLLELSGIGSKDVLGKAGVKVLYENANVGENLQDHTYSATVYNLKSGFKTLDSLRSDSTFAAEQLAAYKANQTSIFTETVPSISYVSLARVVGADRAKAMINEVTQYVQSSRAPYKATLNKQLDFLNNYPDKVGQMELIGIDGYFAGTGAPKPTETYFTILAANQHLFSRGNVHIQSSDPTKYPLIDPKYFSVPFDTELSTAGTAYTRKVGLSKAYSDMVVGEYWPGNVDLQNYTKTTSVTEYHPIGTASMLPRNQGGVVDPSLRVYGTTNLRVVDASIMPLHVAAHIQATIYGVAEYAASIIKSQA
notes: expressed with native signal peptide, secreted from Pichia pastoris X-33 (pPICZA); purified; non-covalent FAD; codon-optimised synthetic gene
Km (purified protein [5]): 60.9 ± 6.7 µM | kcat (purified protein [5]): 9.6 s⁻¹ | kcat/Km (purified protein [5]): 158000 M⁻¹ s⁻¹ | Km (purified protein [6]): 12.2 ± 1.0 µM | kcat (purified protein [6]): 11.3 s⁻¹ | kcat/Km (purified protein [6]): 926000 M⁻¹ s⁻¹ | Km (purified protein [7]): 26.5 ± 1.7 µM | kcat (purified protein [7]): 11.5 s⁻¹ | kcat/Km (purified protein [7]): 435000 M⁻¹ s⁻¹ | Km (purified protein [8]): 26.9 µM | kcat (purified protein [8]): 8.9 s⁻¹ | kcat/Km (purified protein [8]): 332000 M⁻¹ s⁻¹ | Km (purified protein [9]): 119.0 ± 7.0 µM | kcat (purified protein [9]): 11.7 s⁻¹ | kcat/Km (purified protein [9]): 98000 M⁻¹ s⁻¹ | Km (purified protein [10]): 23.7 ± 1.7 µM | kcat (purified protein [10]): 9.2 s⁻¹ | kcat/Km (purified protein [10]): 387000 M⁻¹ s⁻¹ | Km (purified protein [11]): 341 ± 20 µM | kcat (purified protein [11]): 5.4 s⁻¹ | kcat/Km (purified protein [11]): 15700 M⁻¹ s⁻¹ | Km (purified protein [12]): 582 µM | Km (purified protein [13]): 30.0 ± 2.4 µM | kcat (purified protein [13]): 10.6 s⁻¹ | kcat/Km (purified protein [13]): 354000 M⁻¹ s⁻¹ | kcat (purified protein [14]): 11.2 s⁻¹ | kcat/Km (purified protein [14]): 745000 M⁻¹ s⁻¹ | Km (purified protein [15]): 1.74 ± 0.24 µM | kcat (purified protein [15]): 6.4 s⁻¹ | kcat/Km (purified protein [15]): 3.67e+06 M⁻¹ s⁻¹

Source: article PMC8557139, “Characterization of a thermotolerant aryl-alcohol oxidase from Moesziomyces antarcticus oxidizing 5-hydroxymethyl-2-furancarboxylic acid” (Applied Microbiology and Biotechnology, 2021)
